This note sets out measurements from patent US20220098319A1 (SHANGHAI PHARMAEXPLORER, published 2022).

Positions count from the first letter of the chain named.

The target of assay [1] is T1, His-tagged CD73 extracellular domain protein (hCD73 ECD-His) (human, UniProt P21589 27-547).
T1 construct: Expressed in CHO cells from pTT5-hCD73 ECD-His6, purified on nickel column; also called hCD73 ECD-His6; human CD73 ECD
T1 sequence: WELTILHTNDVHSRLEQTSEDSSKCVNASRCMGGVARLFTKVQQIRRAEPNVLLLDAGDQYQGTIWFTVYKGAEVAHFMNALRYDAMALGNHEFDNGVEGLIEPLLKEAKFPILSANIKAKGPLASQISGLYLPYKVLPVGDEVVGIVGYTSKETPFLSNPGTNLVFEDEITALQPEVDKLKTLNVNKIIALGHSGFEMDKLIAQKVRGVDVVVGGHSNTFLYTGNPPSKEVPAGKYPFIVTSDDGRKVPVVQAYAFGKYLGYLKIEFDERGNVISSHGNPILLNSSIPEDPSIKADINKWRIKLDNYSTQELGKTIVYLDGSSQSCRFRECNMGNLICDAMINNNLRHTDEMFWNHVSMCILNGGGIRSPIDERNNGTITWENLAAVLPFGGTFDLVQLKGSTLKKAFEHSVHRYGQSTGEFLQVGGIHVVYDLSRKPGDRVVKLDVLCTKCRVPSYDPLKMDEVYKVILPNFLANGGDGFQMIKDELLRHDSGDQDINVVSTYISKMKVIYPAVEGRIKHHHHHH
Briefly: affinity to hCD73 ECD-His (headed SPR; Octet assumed as in 5.5).

For assay [2], the target named is T2, human CD73 (full length, on transfected CHOK1 cells) (human, UniProt P21589 27-549).
T2 sequence (looked up): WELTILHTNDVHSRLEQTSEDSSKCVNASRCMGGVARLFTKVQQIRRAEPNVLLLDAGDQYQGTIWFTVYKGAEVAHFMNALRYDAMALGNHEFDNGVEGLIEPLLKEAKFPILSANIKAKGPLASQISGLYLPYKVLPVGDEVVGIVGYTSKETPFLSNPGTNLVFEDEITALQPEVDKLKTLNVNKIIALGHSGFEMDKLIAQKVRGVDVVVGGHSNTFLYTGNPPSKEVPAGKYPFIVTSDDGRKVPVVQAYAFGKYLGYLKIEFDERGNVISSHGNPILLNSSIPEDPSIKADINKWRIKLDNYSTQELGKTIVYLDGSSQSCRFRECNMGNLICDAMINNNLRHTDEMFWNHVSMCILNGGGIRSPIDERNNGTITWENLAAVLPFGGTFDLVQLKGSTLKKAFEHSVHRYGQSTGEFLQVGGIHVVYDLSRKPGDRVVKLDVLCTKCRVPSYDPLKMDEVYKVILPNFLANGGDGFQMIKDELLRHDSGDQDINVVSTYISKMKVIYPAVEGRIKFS
Briefly: cell-based or functional assay.

Assay [3] addresses T3, cynomolgus monkey CD73 (on transfected CHOK1 cells) (cynomolgus monkey, UniProt A0A2K5V5U7 27-549).
T3 construct: whole, on cells; also called CHOK1-cCD73; CHOK1-CCD73
T3 sequence: T2 sequence (looked up) with M199T, T350A, V466I
Briefly: FACS on CHOK1-cCD73 cells.

The target in assay [4] is T1, His-tagged CD73 extracellular domain …. Briefly: Octet BLI, antibody on AHC sensor, antigen 50-200 nM, 1:1 fit. From the text: Octet Red 96 was selected as the test instrument, and AHC biosensor was selected as the test sensor in this experiment. Anti-human IgG Fc antibody has been immobilized on the AHC sensor, which can be used to directly capture the 15 antibodies in this experiment. Then the sensor was immersed in the analysis sample (antigen). There were five steps in this experiment: 1, Baseline (120 s) 2, Loading (capture antibody) (300 s) 3, Baseline (120 s) 4, Association (binding antigen) (180 s) 5, Dissociation (antigen dissociation) (1200 s). After the test was completed, the regeneration buffer (Glycine PH1.5) and the neutralization buffer (1*PBS buffer) were alternately immersed for 5 seconds, and the sensor was regenerated by a total of five cycles. The maximum number of sensor regeneration times is 10. The running buffer in this experiment is the sample diluent (1*PBS buffer containing 0.02% Tween20 and 0.1% BSA), that is, the buffer used in the Baseline step, the Dissociation step, and the blank analyte sample. Four sensors are used at one running in this experiment.
Sample treatment: all the antibodies were diluted to the working concentration of 10 ug/ml with sample diluent (1*PBS buffer containing 0.02% Tween20 and 0.1% BSA), and the analyte samples (antigens) were diluted to three working concentrations: 200 nM, 100 nM and 50 nM.
For data analysis, Octet Data Analysis (version 7.0) was used to calculate the response signal value (the signal of the coupled analyte sample minus the signal of the blank analyte sample), and a 1:1 binding model was used to fit the data.

Assay [5] addresses T4, murine CD73 (on transfected CHOK1 cells) (mouse, UniProt Q61503 29-551).
T4 construct: whole, on cells; also called CHOK1-mCD73; mCD73
T4 sequence (looked up): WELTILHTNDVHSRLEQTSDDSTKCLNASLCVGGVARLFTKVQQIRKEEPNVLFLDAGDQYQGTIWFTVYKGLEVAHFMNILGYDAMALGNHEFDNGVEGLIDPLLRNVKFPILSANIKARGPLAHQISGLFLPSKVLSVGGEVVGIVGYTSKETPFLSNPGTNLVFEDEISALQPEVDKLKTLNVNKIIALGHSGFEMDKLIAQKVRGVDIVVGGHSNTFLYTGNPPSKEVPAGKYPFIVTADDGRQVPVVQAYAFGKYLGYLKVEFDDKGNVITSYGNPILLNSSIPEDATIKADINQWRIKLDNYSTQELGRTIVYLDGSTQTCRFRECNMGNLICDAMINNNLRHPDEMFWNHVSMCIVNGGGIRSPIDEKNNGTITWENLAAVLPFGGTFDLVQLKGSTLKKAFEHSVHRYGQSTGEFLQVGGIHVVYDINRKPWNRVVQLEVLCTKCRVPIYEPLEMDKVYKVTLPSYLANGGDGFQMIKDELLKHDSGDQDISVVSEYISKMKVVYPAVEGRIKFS
Briefly: FACS on CHOK1-mCD73 cells.

The target of assay [6] is T2, human CD73 (full length, on transfected …). Briefly: FACS on CHOK1-hCD73 cells.

B1: Hu030-2, humanized anti-CD73 antibody (Hu030VH g1 / Hu030VL g0) (antibody, V domains shown)
VH: QVQLQESGPGLVKPSETLSLTCTVSGYSITSRYYWNWIRQPPGKGLEWIGYITYDDNNNYNPSLKNRVTISRDTSKNQFSLKLSSVTAADTAVYYCARGGWDPFLYWGQGTLVTVSS
VL: DIQMTQSPSSLSASVGDRVTITCRASDNIYSYLAWYQQKPGKAPKLLIYSAKNLGEGVPSRFSGSGSGTDFTLTISSLQPEDFATYYCQHYYGTPFTFGGGTKVEIK
notes: also called antibody 11
In assay [1], B1 gave a Kd of 20.8 pM, a koff of 1.55e-05 s⁻¹ and a kon of 746000 M⁻¹ s⁻¹.

B2: mab030xhIgG1TM (clone 42A5A7), mouse-human chimeric anti-CD73 antibody (antibody, V domains shown)
VH: DIQLQESGPGLVKPSQSLSLTCSVTGYSITSRYYWNWIRQFPGNKLEWMGYITYDDNNNYNPSLKNRISITRDTSKNQFFLKLNSVTPEDTATYYCARGGWDPFLYWGQGTLVTVSA
VL: DIQMTQSPASLSASVGETVTITCRASDNIYSYLAWYQQKQGKSLQLLVDSAKNLGEGVPSRFSGSGSGTQFYLKINSLQPEDFGVYYCQHYYGTPFTFGGGTKLELK
notes: also called mAb030 chimeric antibody
On to B2, for which, in assay [2], the “Inhibition assay of enzyme activity, IC50” value worked out at 100 pM and the “Inhibition assay of enzyme activity, MAX % inhibition” value stood at 67.4%. For the same molecule, in assay [3], the concentration for a half-maximal effect (EC50) was found to be 800 pM and the “MAX MFI fold” value was 138 fold. Further, in assay [4], the dissociation constant Kd was determined as 38.5 pM, the koff stood at 1.16e-05 s⁻¹ and the kon was determined as 302000 M⁻¹ s⁻¹. For the same molecule, the binding result in assay [5] is listed as “no binding”. In assay [1], this molecule registered a Kd of 31.6 pM, a koff of 2.27e-05 s⁻¹ and a kon of 719000 M⁻¹ s⁻¹. For the same molecule, in assay [6], a half-maximal effect (EC50) was put at 1500 pM and the “MAX MFI fold” value was 114 fold.

B3: mab065xhIgG1TM (clone 125A4E10), mouse-human chimeric anti-CD73 antibody (antibody, V domains shown)
VH: EVQLQQSGPELVKPGASVKISCKASGYTFTDYYMNWVKQSHGKSLEWIGNINPNNGDTNYNQKFKGKATLTVDKSSSTASMELRSLTSEDSAVYYCANSGYYYFDYWGQGTTLTVSS
VL: DIVMTQSPSSLTVTAGEKVTMSCKSSQSLLNSGNQKNYLTWYQQKPGQPPKVLIYWASTRESGVPDRFTGSGSGTDFTLTISSVQAEDLAVYYCQNDYSYPPTFGGGTNLEIK
notes: also called mAb065 chimeric antibody
Turning to B3, in assay [2], the “Inhibition assay of enzyme activity, IC50” value amounted to 100 pM and the “Inhibition assay of enzyme activity, MAX % inhibition” value stood at 54.7%. Besides, in assay [3], the midpoint of the response, the EC50, lay at 3600 pM and the “MAX MFI fold” value was found to be 173 fold. In assay [4], this molecule returned a Kd of 112 pM, a koff of 4.86e-05 s⁻¹ and a kon of 434000 M⁻¹ s⁻¹. For the same molecule, the binding result in assay [5] is “no binding”. Besides, in assay [6], the EC50 is 1200 pM and the “MAX MFI fold” value was 160 fold.
